Laboratory results as given in patent US7666414B2, “Methods for treating prostate cancer using modified antibodies to prostate-specific membrane antigen” (Cornell Research Foundation, Inc., priority 2001, dated 2010).
pEC50, pIC50: −log10 of the molar value. Read-outs that look alike come from different tables or passages of the source.

Legend:
LNCaP = test: Binding to LNCaP by FACS; design: species or system human
CD-1 mice = test system: CD-1 mice
Excerpt: Use of both mice and cynomolgus monkeys for nonclinical testing allowed comparison of exposure and toxicity across species on the basis of body surface area (mg/m^2), and thus aided in selecting the SSD for the proposed Phase 1 clinical trial.

[1] = test system: micronucleated polychromatic erythrocytes; conditions: 30, 48, and 90 mg/m^2
[2] = test system: micronucleated polychromatic erythrocytes; test: Mouse micronucleus test; conditions: in vivo
[3] = Pharmacokinetics of deJ591 and deJ591-DM1 in cynomolgus monkeys
[4] = test system: PSMA-positive 22RV1 xenografts; test: Efficacy in castrate or intact scid mice bearing androgen-independent 22RV1 xenograft; assay type: in vivo, C.B-17 scid mice; conditions: 12.93 mg/kg
Procedure: Prostate tumors can be broadly classified as either androgen-dependent or androgen-independent. […] The 22RV1 cell line was originally developed as androgen-independent and can be grown as a xenograft in C.B-17 scid mice that have been left either intact or castrated. […] C.B-17 scid mice bearing CWR22 xenografts approximately 200 mm^3 in size received IV injections (200 μL constant volume) of the test articles according to the dosage and schedule shown in the Table 24.

[5] = male mice; for AUC, analyte Total deJ591 / AUC, analyte deJ591-DM1: 0-336 hours
LNCaP cells = test: In vitro pharmacodynamics, LNCaP proliferation assay; assay type: cell-based, human; conditions: 6-day exposure in tissue culture
Procedure: At the end of that period the drug containing media was removed and replaced with drug free media until a total of 144 hours elapsed from the start of the experiment. The resulting effect of drug exposure on proliferation was then determined.

[6] = test system: PSMA-positive CWR22 xenografts; test: Efficacy in PSMA-positive CWR22 xenografts; assay type: in vivo, C.B-17 scid mice; conditions: for TGD: dosing interval study, five cycles
Procedure: (§1) Experiment: Male SCID mice were implanted by serial passage of CWR22 prostate tumor xenograft. […] All treatments were given intravenously. Tumor growth and animal health were continually monitored throughout the study with tumor growth measured every 3 days.
Experiment: Male C.B-17 SCID mice bearing CWR22 xenografts approximately 200 mm^3 in size received IV injections (200 μL constant volume) of the test articles according to the dose and schedule as shown in Table 22.
Male C.B-17 scid mice bearing CWR22 xenografts approximately 200 mm^3 in size received IV injections (200 μL constant volume) of the test articles according to the dose and schedule shown in the Table 23.
The objective of this study was to determine how much the dosing interval could be increased at this dosage before a loss of efficacy in terms of TGD would be observed. […] The growth delays for the other schedules were: q7d, 53.0 days; q21d, 48.0 days; and q28d, 26.9 days. Similar to other studies using the CWR22 xenograft model, no curative responses were observed, with all tumors eventually resuming growth (FIG. 18).
as §1, with “intravenously and on a schedule of every three days for 5 doses.” for “intravenously.”
as §1, with “intravenously and on a schedule of every seven days for 5 doses.” for “intravenously.”

PSMA-negative cells = conditions: read-out: Non-specific in vitro cytotoxicity towards PSMA-negative cells, IC50
[7] = MLN2704 300 mg/m^2 (100 mg/kg), single IV, CD-1 mice
[8] = study CTBR 57355, deJ591-DM1 6 mg/kg (72 mg/m^2)
[9] = study CTBR 57355, deJ591-DM1 10 mg/kg (120 mg/m^2)
[10] = study CTBR 57355, deJ591-DM1 16 mg/kg ([…]^2)
[11] = study CTBR 57355, deJ591-DM1 30 mg/kg (360 mg/m^2)
[12] = study CTBR 57355, mean over dosages
[13] = study KLA W-171, deJ591-DM1 6 mg/kg (72 mg/m^2)
[14] = single IV deJ591-DM1 10 mg/kg (30 mg/m^2)
[15] = single IV deJ591-DM1 30 mg/kg (90 mg/m^2)
[16] = single IV deJ591-DM1 90 mg/kg (270 mg/m^2)

For “deJ591-DM1: deJ591 conjugated via SPP disulfide linker to the maytansinoid DM1, DM1/antibody ratio about 3.5”, the pEC50 (LNCaP; listed as 1552-60S) was 8.10, the pEC50 (LNCaP; listed as N067020302) was 8.16 and the “Degree of Toxicity and Major Target Organs” value (“Degree” for short) (CD-1 mice; 30 mg/m^2 (10 mg/kg)) was “Mild toxicity to testes”. The “Degree” value (CD-1 mice; 48 mg/m^2 (16 mg/kg)) was “Mild to moderate toxicity to reproductive”, the “Degree” value (CD-1 mice; 90 mg/m^2 (30 mg/kg)) was “Mild to moderate toxicity to reproductive,” and the “Degree” value (CD-1 mice; 300 mg/m^2 (100 mg/kg)) was “Moderate to severe toxicity to reproductive,”. The mortality (CD-1 mice; 480 mg/m^2 (160 mg/kg)) was 100% mortality attributed to severe, the “Degree” value (CD-1 mice; MLN2704 30 mg/m^2 (10 mg/kg), single IV, CD-1 mice) was “Mild toxicity to testes” and the “Degree” value (CD-1 mice; MLN2704 48 mg/m^2 (16 mg/kg), single IV, CD-1 mice) was “Mild to moderate toxicity to”. The “elevated AST and ALT values” (CD-1 mice; MLN2704 90 mg/m^2 (30 mg/kg), single IV, CD-1 mice) was “mitosis/necrosis of liver; slightly”, the “elevated AST and ALT values” (CD-1 mice; MLN2704 180 mg/m^2 (60 mg/kg), single IV, CD-1 mice) was “mitosis/necrosis of liver; moderately” and the “elevated AST and ALT values” (CD-1 mice; [7]) was “mitosis/necrosis of liver; markedly”. The mortality (CD-1 mice; [7]) was 30% mortality attributed to severe, the “Degree” value (CD-1 mice; MLN2704 300 mg/m^2 (100 mg/kg), single IV, CD-1 mice, survivors) was “toxicity. Moderate to severe toxicity to” and the mortality (CD-1 mice; MLN2704 480 mg/m^2 (160 mg/kg), single IV, CD-1 mice) was 100% mortality attributed to severe. The “Mouse LD10 (female)” value (CD-1 mice; calculated) was 95 mg/kg, the “Mouse LD10 (female), DM1-Equivalents received” value (CD-1 mice; calculated) was 5.13 mg/m^2 and the “Mouse LD10 (male)” value (CD-1 mice; calculated) was 96 mg/kg. For the same substance, the “Mouse LD10 (male), DM1-Equivalents received” value (CD-1 mice; calculated) was 5.18 mg/m^2, the lower testes weights (CD-1 mice; lowest tested dosage 30 mg/m^2) was 10% and the “Mouse LD100” value (CD-1 mice; mouse, in vivo) was 160 mg/kg. For the same substance, the “Mouse MTD” value (CD-1 mice; mouse, in vivo) was 60 mg/kg, the “Mouse STD, DM1-Equivalents received” value (CD-1 mice; mouse, in vivo) was 5.40 mg/m^2 and the LD100 (CD-1 mice; single IV, CD-1 mice) was 160 mg/kg. For the same substance, the MTD (CD-1 mice; single IV, CD-1 mice) was 60 mg/kg, the “LD10 (females)” value (CD-1 mice; single IV, CD-1 mice, females, calculated) was 95 mg/kg and the “LD10 (males)” value (CD-1 mice; single IV, CD-1 mice, males, calculated) was 96 mg/kg. For the same substance, the “increases in micronucleated polychromatic erythrocytes” value [1] was “positive”, the “Lowest genotoxic dosage in ICR mice, DM1-Equivalents received” value [2] was 0.54 mg/m^2 and the “Tmax, analyte Total deJ591” value [3, 8] was 60 min. For the same substance, the “Tmax, analyte deJ591-DM1” value [3, 8] was 48 min, the “AUC, analyte Total deJ591” value [3, 8] was 17200 µg·h/mL and the “AUC, analyte deJ591-DM1” value [3, 8] was 6720 µg·h/mL. The “Tmax, analyte deJ591-DM1” value [3, 9] was 36 min, the “t1/2, analyte Total deJ591” value [3, 9] was 200 h and the “AUC, analyte Total deJ591” value [3, 9] was 31700 µg·h/mL. The “AUC, analyte deJ591-DM1” value [3, 9] was 10600 µg·h/mL, the “Tmax, analyte Total deJ591” value [3, 10] was 54 min and the “Tmax, analyte deJ591-DM1” value [3, 10] was 48 min. The “AUC, analyte Total deJ591” value [3, 10] was 44400 µg·h/mL, the “AUC, analyte deJ591-DM1” value [3, 10] was 15600 µg·h/mL and the “Tmax, analyte deJ591-DM1” value [3, 11] was 48 min. For the same substance, the “AUC, analyte Total deJ591” value [3, 11] was 95000 µg·h/mL, the “AUC, analyte deJ591-DM1” value [3, 11] was 33500 µg·h/mL and the “Tmax, analyte Total deJ591” value [3, 12] was 54 min. For the same substance, the “Tmax, analyte deJ591-DM1” value [3, 12] was 42 min, the “Tmax, analyte Total deJ591” value [3, 13] was 300 min and the “Tmax, analyte deJ591-DM1” value [3, 13] was 60 min. For the same substance, the “AUC, analyte Total deJ591” value [3, 13] was 19900 µg·h/mL, the “AUC, analyte deJ591-DM1” value [3, 13] was 5020 µg·h/mL and the “Tumor Growth Delay” value ([4]; Castrate Mice, q3dX5) was 26.3 days. For the same substance, the “Tumor Growth Delay” value ([4]; Intact Mice, q3dX5) was 13.1 days, the “Tumor Growth Delay” value ([4]; Intact Mice, q7dX5) was 7.8 days and the “Tmax, analyte Total deJ591” value [5, 14] was 30 min. For the same substance, the “Tmax, analyte deJ591-DM1” value [5, 14] was 30 min, the “AUC, analyte Total deJ591” value [5, 14] was 8920 µg·h/mL and the “AUC, analyte deJ591-DM1” value [5, 14] was 3260 µg·h/mL. For the same substance, the “Tmax, analyte Total deJ591” value [5, 15] was 4.8 min, the “Tmax, analyte deJ591-DM1” value [5, 15] was 4.8 min and the “AUC, analyte Total deJ591” value [5, 15] was 21000 µg·h/mL. The “AUC, analyte deJ591-DM1” value [5, 15] was 5960 µg·h/mL, the “Tmax, analyte Total deJ591” value [5, 16] was 4.8 min and the “Tmax, analyte deJ591-DM1” value [5, 16] was 4.8 min. For the same substance, the “AUC, analyte Total deJ591” value [5, 16] was 62300 µg·h/mL, the “AUC, analyte deJ591-DM1” value [5, 16] was 30600 µg·h/mL and the “IC50 on PSMA-positive LNCaP cells” value (LNCaP cells) was 0.21 µg/mL. The “return to normal growth kinetics following the last dose” value ([6]; 7.25 mg/kg every seven days for 5 doses) was “approximately 10 days”, the “Tumor Growth Delay” value ([6]; 7.28 mg/kg (120 μg/kg DM1-equivalents), q3dX5, IV) was 27.1 days and the “Tumor Growth Delay” value ([6]; 7.28 mg/kg (120 μg/kg DM1-equivalents), qdX5, IV) was 19.6 days. For the same substance, the tumor growth ([6]; 14.5 mg/kg every seven days for 5 doses) was “suppression of tumor growth with some reduction from the initial tumor volume”, the tumor growth ([6]; 14.5 mg/kg, 7 and 14 day dosing interval) was “apparent block in tumor growth with a resumption of normal growth kinetics approximately 30 days after the last dose” and the tumor growth ([6]; 14.5 mg/kg, 21 or 28 day dosing interval) was “slowed growth”. The “Tumor Growth Delay” value ([6]; 14.56 mg/kg (240 μg/kg DM1-equivalents), q3dX5, IV) was 36.7 days, the “Tumor Growth Delay” value ([6]; 14.56 mg/kg (240 μg/kg DM1-equivalents), qdX5, IV) was 26.9 days and the “Tumor Growth Delay” value ([6]; Comparison II, 4.8 mg/kg (90 μg/kg DM1-equivalents), q3dX5) was 31.9 days. For the same substance, the “Tumor Growth Delay” value ([6]; Comparison II, 6.5 mg/kg (120 μg/kg DM1-equivalents), q3dX5) was 37.8 days, the “Tumor Growth Delay” value ([6]; Comparison II, 6.5 mg/kg (120 μg/kg DM1-equivalents), q7dX5) was 33.9 days and the “Tumor Growth Delay” value ([6]; Comparison II, 9.7 mg/kg (180 μg/kg DM1-equivalents), q3dX5) was 42.7 days. For the same substance, the “Tumor Growth Delay” value ([6]; Comparison II, 12.93 mg/kg (240 μg/kg DM1-equivalents), q3dX5) was 46.4 days, the “Tumor Growth Delay” value ([6]; Comparison II, 12.93 mg/kg (240 μg/kg DM1-equivalents), q7dX5) was 66.8 days and the associated toxicity ([6]; all dosages, Comparison I) was “less for all dosages of deJ591-DM1 relative to maytansine alone”. For the same substance, the curative effect ([6]; doses and schedules of Comparison I) was “non-curative”, the TGD ([6]; 12.93 mg/kg, q7d) was 53.0 days and the TGD ([6]; 12.93 mg/kg, q14d) was 75.7 days. For the same substance, the TGD ([6]; 12.93 mg/kg, q21d) was 48.0 days, the TGD ([6]; 12.93 mg/kg, q28d) was 26.9 days and the “Efficacious dosage in SCID mouse xenografts, DM1-Equivalents received” value ([6]; mouse, in vivo) was about 0.72 mg/m^2. The “In vivo activity - mouse xenograft model” value ([6]; reference standard batch) was “Delays tumor growth”, the “effect on large tumors, 500 to 2000 mm^3” value ([6]; second course, 12.93 mg/kg) was “potent regressions” and the pIC50 (PSMA-negative cells; listed as 1552-60S) was 7.87. It also gave a pIC50 (PSMA-negative cells; listed as N067020302) of 7.77.
